Experimental data published in patent US20200264182A1, “METHOD FOR DETECTING PROSTATE CANCER” (J-OIL MILLS, INC., priority 2017, published 2020).

How the values were obtained:
[1] = biological target: serum fucosylated PSA (prostate specific antigen) (human) (UniProt P07288); experiment: sandwich ELISA, anti-PSA antibody capture, biotin-lectin detection, lectin reaction pH 7.4; serum of Healthy 1
[2] = biological target: serum fucosylated PSA (prostate specific antigen) (human) (UniProt P07288); experiment: sandwich ELISA, anti-PSA antibody capture, biotin-lectin detection, lectin reaction pH 9.6; serum of Healthy 1
[3] = biological target: serum fucosylated PSA (prostate specific antigen) (human) (UniProt P07288); experiment: sandwich ELISA, anti-PSA antibody capture, biotin-lectin detection, lectin reaction pH 7.4; serum of Prostate cancer 4
[4] = biological target: serum fucosylated PSA (prostate specific antigen) (human) (UniProt P07288); experiment: sandwich ELISA, anti-PSA antibody capture, biotin-lectin detection, lectin reaction pH 9.6; serum of Prostate cancer 4
[5] = biological target: serum fucosylated PSA (prostate specific antigen) (human) (UniProt P07288); experiment: sandwich ELISA, anti-PSA antibody capture, biotin-lectin detection, pH 7.4; serum of Healthy 1
[6] = biological target: serum fucosylated PSA (prostate specific antigen) (human) (UniProt P07288); experiment: sandwich ELISA, anti-PSA antibody capture, biotin-lectin detection, pH 7.4; serum of Healthy 2
[7] = biological target: serum fucosylated PSA (prostate specific antigen) (human) (UniProt P07288); experiment: sandwich ELISA, anti-PSA antibody capture, biotin-lectin detection, pH 7.4; serum of Healthy 3
[8] = biological target: serum fucosylated PSA (prostate specific antigen) (human) (UniProt P07288); experiment: sandwich ELISA, anti-PSA antibody capture, biotin-lectin detection, pH 7.4; serum of Healthy 4
[9] = biological target: serum fucosylated PSA (prostate specific antigen) (human) (UniProt P07288); experiment: sandwich ELISA, anti-PSA antibody capture, biotin-lectin detection, pH 7.4; serum of Healthy 5
[10] = biological target: serum fucosylated PSA (prostate specific antigen) (human) (UniProt P07288); experiment: sandwich ELISA, anti-PSA antibody capture, biotin-lectin detection, pH 7.4; serum of Healthy 6
[11] = biological target: serum fucosylated PSA (prostate specific antigen) (human) (UniProt P07288); experiment: sandwich ELISA, anti-PSA antibody capture, biotin-lectin detection, pH 7.4; serum of Healthy 7
[12] = biological target: serum fucosylated PSA (prostate specific antigen) (human) (UniProt P07288); experiment: sandwich ELISA, anti-PSA antibody capture, biotin-lectin detection, pH 7.4; sera of subgroup GS6, n=2
[13] = biological target: serum fucosylated PSA (prostate specific antigen) (human) (UniProt P07288); experiment: sandwich ELISA, anti-PSA antibody capture, biotin-lectin detection, pH 7.4; sera of subgroup GS7, n=2
[14] = biological target: serum fucosylated PSA (prostate specific antigen) (human) (UniProt P07288); experiment: sandwich ELISA, anti-PSA antibody capture, biotin-lectin detection, pH 7.4; serum of Prostate cancer 1 (GS 4)
[15] = biological target: serum fucosylated PSA (prostate specific antigen) (human) (UniProt P07288); experiment: sandwich ELISA, anti-PSA antibody capture, biotin-lectin detection, pH 7.4; serum of Prostate cancer 2 (GS 5)
[16] = biological target: serum fucosylated PSA (prostate specific antigen) (human) (UniProt P07288); experiment: sandwich ELISA, anti-PSA antibody capture, biotin-lectin detection, pH 7.4; serum of Prostate cancer 3 (GS 6)
[17] = biological target: serum fucosylated PSA (prostate specific antigen) (human) (UniProt P07288); experiment: sandwich ELISA, anti-PSA antibody capture, biotin-lectin detection, pH 7.4; serum of Prostate cancer 4 (GS 6)
[18] = biological target: serum fucosylated PSA (prostate specific antigen) (human) (UniProt P07288); experiment: sandwich ELISA, anti-PSA antibody capture, biotin-lectin detection, pH 7.4; serum of Prostate cancer 5 (GS 7)
[19] = biological target: serum fucosylated PSA (prostate specific antigen) (human) (UniProt P07288); experiment: sandwich ELISA, anti-PSA antibody capture, biotin-lectin detection, pH 7.4; serum of Prostate cancer 6 (GS 7)
[20] = biological target: serum fucosylated PSA (prostate specific antigen) (human) (UniProt P07288); experiment: sandwich ELISA, anti-PSA antibody capture, biotin-lectin detection, pH 7.4; serum of Prostate cancer 7 (GS 8)
[21] = biological target: serum fucosylated PSA (prostate specific antigen) (human) (UniProt P07288); experiment: sandwich ELISA, anti-PSA antibody capture, biotin-lectin detection, pH 7.4; serum of Prostate cancer 8 (GS 8)
[22] = biological target: serum fucosylated PSA (prostate specific antigen) (human) (UniProt P07288); experiment: sandwich ELISA, anti-PSA antibody capture, biotin-lectin detection, pH 7.4; serum of Prostate cancer 9 (GS 8)
[23] = biological target: serum fucosylated PSA (prostate specific antigen) (human) (UniProt P07288); experiment: sandwich ELISA, anti-PSA antibody capture, biotin-lectin detection, pH 7.4; sera of subgroup GS8 or more, n=3
[24] = biological target: serum fucosylated PSA (prostate specific antigen) (human) (UniProt P07288); experiment: sandwich ELISA, anti-PSA antibody capture, biotin-lectin detection, pH 7.4; sera of the healthy person group (n=7)
[25] = biological target: serum fucosylated PSA (prostate specific antigen) (human) (UniProt P07288); experiment: sandwich ELISA, anti-PSA antibody capture, biotin-lectin detection, pH 7.4; sera of subgroup Negative (GS5 or less), n=2
[26] = biological target: serum fucosylated PSA (prostate specific antigen) (human) (UniProt P07288); experiment: sandwich ELISA, anti-PSA antibody capture, biotin-lectin detection, pH 7.4; sera of the prostate cancer patient group (n=9)

Which results are given for “Stropharia rugosoannulata lectin (SRL), biotin-labeled”?
SRL reaction value [1]: 20 U/mL; SRL reaction value [2]: 16.8 U/mL; SRL reaction value [3]: 146 U/mL; SRL reaction value [4]: 234 U/mL

For “Aleuria aurantia lectin (AAL), biotin-labeled (from UniProt P18891 2-313)”, which AAL reaction value [5] is on record?
The AAL reaction value was 1100 U/mL.

And the AAL reaction value [6]?
The AAL reaction value was 855 U/mL.

And the AAL reaction value [7]?
The AAL reaction value was 1060 U/mL.

And the AAL reaction value [8]?
The AAL reaction value was 115 U/mL.

What about the AAL reaction value [9] of the same substance?
Its AAL reaction value is 32.3 U/mL.

And the AAL reaction value [10]?
Its AAL reaction value is 1190 U/mL.

And the AAL reaction value [11]?
The AAL reaction value was 1030 U/mL.

What about the AAL reaction value (mean value) [12] of the same substance?
The AAL reaction value (mean value) was 1040 U/mL.

And the AAL reaction value (median value) [12]?
Its AAL reaction value (median value) is 1040 U/mL.

And the AAL reaction value (mean value) [13]?
The AAL reaction value (mean value) was 993 U/mL.

What about the AAL reaction value (median value) [13] of the same substance?
The AAL reaction value (median value) was 993 U/mL.

What about the AAL reaction value [14] of the same substance?
The AAL reaction value was 831 U/mL.

What about the AAL reaction value [15] of the same substance?
The AAL reaction value was 1030 U/mL.

What about the AAL reaction value [16] of the same substance?
Its AAL reaction value is 1150 U/mL.

What about the AAL reaction value [17] of the same substance?
The AAL reaction value was 926 U/mL.

And the AAL reaction value [18]?
The AAL reaction value was 1020 U/mL.

And the AAL reaction value [19]?
Its AAL reaction value is 962 U/mL.

What about the AAL reaction value [20] of the same substance?
The AAL reaction value was 1210 U/mL.

And the AAL reaction value [21]?
Its AAL reaction value is 1010 U/mL.

And the AAL reaction value [22]?
Its AAL reaction value is 988 U/mL.

What about the AAL reaction value (mean value) [23] of the same substance?
The AAL reaction value (mean value) was 1070 U/mL.

And the AAL reaction value (median value) [23]?
Its AAL reaction value (median value) is 1010 U/mL.

And the AAL reaction value (average value) [24]?
The AAL reaction value (average value) was 769 U/mL.

And the AAL reaction value (median value) [24]?
Its AAL reaction value (median value) is 1030 U/mL.

And the AAL reaction value (mean value) [25]?
The AAL reaction value (mean value) was 932 U/mL.

What about the AAL reaction value (median value) [25] of the same substance?
Its AAL reaction value (median value) is 932 U/mL.

And the AAL reaction value (average value) [26]?
Its AAL reaction value (average value) is 1020 U/mL.

What about the AAL reaction value (median value) [26] of the same substance?
The AAL reaction value (median value) was 1010 U/mL.

Which results are given for “Pholiota squarrosa lectin peptide (PhoSL peptide), biotin-labeled”?
PhoSL peptide reaction value [1]: 1 U/mL; PhoSL peptide reaction value [3]: 102 U/mL; PhoSL peptide reaction value [4]: 234 U/mL

For “Amanita muscaria lectin (AML), biotin-labeled”, which AML reaction value [1] is on record?
Its AML reaction value is 21.2 U/mL.

What about the AML reaction value [3] of the same substance?
Its AML reaction value is 141 U/mL.

And the AML reaction value [4]?
Its AML reaction value is 151 U/mL.

With “Naematoloma sublateritium lectin (NSL), biotin-labeled” as the substance, how does the NSL reaction value [1] read?
Its NSL reaction value is 178 U/mL.

And the NSL reaction value [2]?
The NSL reaction value was 42.3 U/mL.

And the NSL reaction value [3]?
The NSL reaction value was 400 U/mL.

What about the NSL reaction value [4] of the same substance?
Its NSL reaction value is 283 U/mL.
